From patent US20190330638A1 (MAYO FOUNDATION FOR MEDICAL EDUCATION AND RESEARCH, published 2019)

Target: T1, Ubiquitin-H4 fusion construct (UniProt P0CG48 1-76; P62805 1-103, limits assumed)
T1 construct: Linear fusion used as control bait for pull-down/mass spectrometry; a single ubiquitin unit is meant; also called Ub-H4; Ubquitin-H4
Assay: pull-down with fusion construct, mass spectrometry
Method: A search for potential histone H4 ufmylation readers was performed. […] Next, an immunopreciptation assay was performed with STK38 antibody.

B1: serine/threonine kinase 38 (STK38) (enzyme)
chain: not shown
notes: Endogenous protein from cell lysates (pull-down/mass spectrometry, immunoprecipitation with STK38 antibody); also called NDR1
  binding result: no binding
